We go through one molecule from US20140086829A1 (BIOREC S A, published 2014).

This experiment addresses T1, human GST-VEGF (human, UniProt P15692-9 27-147).
T1 construct: also called GST-VEGF humano; not shown: GST fusion partner
T1 sequence (looked up): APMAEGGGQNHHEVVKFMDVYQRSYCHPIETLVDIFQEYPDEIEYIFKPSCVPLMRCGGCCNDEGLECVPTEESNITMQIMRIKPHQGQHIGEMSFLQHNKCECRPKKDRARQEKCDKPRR
Briefly: competition ELISA on coated GST-VEGF; soluble scFv 2H1 titrated; competitor phage scFv 3F3. A general note: In an ELISA, binding on a coated surface is turned into a signal by an enzyme label.

B1: soluble scFv 2H1 antibody fragment (scFv, from another filing)
scFv: QQVQLVQSGAEVKKPGESLKISCKGSGYSFTSYWIGWVRQMPGKGLEWMGIIYPGDSDTRYSPSFQGQVTISADKSISTAYLQWSSLKASDTAMYYCARLVVRDTEIWGQGTMVTVSSAPQAKSSGSGSESKVDQAVVTQEPSLTVSPGGTVTLTCASSIGAVTSGNYPNWFQQRPGQPPRALIYSTSNKHSWTPARFSGSLLGGKAALTLSGAQPEDEAEYYCLLSYSGARPVFGGGTKLTVLGAAAGSEQKLISEEDLNSHHHHHH
B1: the IC50 – broadly, the point on the concentration scale where inhibition reaches its midpoint – was determined as 48.9 µg/mL.
